For this test, the target named is Mab2-5G2, monoclonal anti-idiotypic antibody recognizing an antibody that specifically interacts with PRRSV glycoprotein 5 (GP5). As to the kind of experiment: ELISA. Conditions: chain shown with the change; Mab2-5G2 as plate-coating protein; anti-PRA rabbit serum for detection; parent: est. 1.6; read off a plot. Background: An ELISA detects its analyte on a solid surface through an enzyme-linked reagent.

B1: PRA, C-terminal domain of MYH9 (recombinant, wild type) K1673A (protein)
chain: MRELEDTRASREEILAQAKENEAKLKSMEAEMIQLQEELAAAERAKRQAQQERDELADEIANSSGKGALALEEKRRLEARIAQLEEELEEEQGNTELVNDRLKKANLQIDQINTDLNLERSHAQKNENARQQLERQNKELKVKLQEMEGTVKSKYKASIAALEAKIAQLEEQLDNETKERQAACKQVRRAEKKLKDVLLQVDDERRNAEQYKDQADKASTRLKQLKRQLEEAEEEAQRANASRRKLQRELEDATETADAMNREVSSLKNKLRRGDLPFVVPRRMGRKGAGDCSDEEVDGKADGAEAKAAE
As for B1, the response was 0.4 OD450.

B2: PRA, C-terminal domain of MYH9 (recombinant, wild type) E1670A (protein)
chain: MRELEDTRASREEILAQAKANEKKLKSMEAEMIQLQEELAAAERAKRQAQQERDELADEIANSSGKGALALEEKRRLEARIAQLEEELEEEQGNTELVNDRLKKANLQIDQINTDLNLERSHAQKNENARQQLERQNKELKVKLQEMEGTVKSKYKASIAALEAKIAQLEEQLDNETKERQAACKQVRRAEKKLKDVLLQVDDERRNAEQYKDQADKASTRLKQLKRQLEEAEEEAQRANASRRKLQRELEDATETADAMNREVSSLKNKLRRGDLPFVVPRRMGRKGAGDCSDEEVDGKADGAEAKAAE
In the case of B2, the response stood at 0.46 OD450.

B3: PRA, C-terminal domain of MYH9 (recombinant, wild type) I1683A (protein)
chain: MRELEDTRASREEILAQAKENEKKLKSMEAEMAQLQEELAAAERAKRQAQQERDELADEIANSSGKGALALEEKRRLEARIAQLEEELEEEQGNTELVNDRLKKANLQIDQINTDLNLERSHAQKNENARQQLERQNKELKVKLQEMEGTVKSKYKASIAALEAKIAQLEEQLDNETKERQAACKQVRRAEKKLKDVLLQVDDERRNAEQYKDQADKASTRLKQLKRQLEEAEEEAQRANASRRKLQRELEDATETADAMNREVSSLKNKLRRGDLPFVVPRRMGRKGAGDCSDEEVDGKADGAEAKAAE
As to B3, the response came to 0.61 OD450.

B4: PRA, C-terminal domain of MYH9 (recombinant, wild type) E1679A (protein)
chain: MRELEDTRASREEILAQAKENEKKLKSMAAEMIQLQEELAAAERAKRQAQQERDELADEIANSSGKGALALEEKRRLEARIAQLEEELEEEQGNTELVNDRLKKANLQIDQINTDLNLERSHAQKNENARQQLERQNKELKVKLQEMEGTVKSKYKASIAALEAKIAQLEEQLDNETKERQAACKQVRRAEKKLKDVLLQVDDERRNAEQYKDQADKASTRLKQLKRQLEEAEEEAQRANASRRKLQRELEDATETADAMNREVSSLKNKLRRGDLPFVVPRRMGRKGAGDCSDEEVDGKADGAEAKAAE
For B4, the response came to 0.36 OD450.

B5: PRA, C-terminal domain of MYH9 (recombinant, wild type) E1670A; K1673A; E1679A; I1683A (protein)
chain: MRELEDTRASREEILAQAKANEAKLKSMAAEMAQLQEELAAAERAKRQAQQERDELADEIANSSGKGALALEEKRRLEARIAQLEEELEEEQGNTELVNDRLKKANLQIDQINTDLNLERSHAQKNENARQQLERQNKELKVKLQEMEGTVKSKYKASIAALEAKIAQLEEQLDNETKERQAACKQVRRAEKKLKDVLLQVDDERRNAEQYKDQADKASTRLKQLKRQLEEAEEEAQRANASRRKLQRELEDATETADAMNREVSSLKNKLRRGDLPFVVPRRMGRKGAGDCSDEEVDGKADGAEAKAAE
For B5, the response is 0.41 OD450.

These data come from paper PMC7019770.
